Non-standard residues stand in square brackets, D forms with d. No end group written: not given here. Ahx = NCCCCCC(=O)O
What was measured:
[1] = target: T1, His-tagged intracellular region of Fas receptor (UniProt P25445 191-335, limits assumed); assay: SPOT pepscan of DAXX (15mers, shift 3) on membrane, probed with His-tagged Fas intracellular region, anti-His(mouse)/anti-mouse-HRP, enzyme-linked blot
T1 construct: domain: intracellular region; Bought reagent (Sigma); also called intra-cellular region of the Fas receptor (Sigma); not shown: His tag
T1 sequence (looked up): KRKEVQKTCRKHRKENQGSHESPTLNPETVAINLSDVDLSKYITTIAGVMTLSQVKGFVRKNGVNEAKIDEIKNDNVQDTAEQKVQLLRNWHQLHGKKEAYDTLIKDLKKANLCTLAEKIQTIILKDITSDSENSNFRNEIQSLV

[2] = target: T1, His-tagged intracellular region of Fas …; assay: SPR (Biacore), mean of three experiments ± SD
Experimental: Additionally, the potential interaction of the fragments with the intracellular region of the Fas receptor was cross-validated by measuring the binding affinities (Kd) using the surface plasmon resonance (SPR) technique (Biacore Life Science, Sweden).
All experiments are performed on a Biacore instrument. For each condition, the mean value of three independent experiments and the corresponding standard deviation are plotted.

B1: ncDAXXp (peptide)
peptide: AKLYVYINELCTVLK
notes: Negative-control DAXX 15mer; the text uses it as Tat-ncDAXXp in the cell assays; also called circled spot at the start of row 41 of the DAXX pepscan
binding result [1]: no binding

B2: DAXXp (peptide)
peptide: KKSRKEKKQTGSGPLG-NH2
notes: also called DAXX peptide
Kd [2]: 333 µM

B3: mDAXXp (peptide)
peptide: KRFRKEKKQLGSGLLG-NH2
modifications: not fully specified; printed as KRFRKEKKQLGSGLLG-NH2
notes: also called mouse homolog of human DAXXp; murine DAXXp
Kd [2]: 252 µM

B4: Tat-DAXXp (peptide)
peptide: GRKKRRQRRRPPQKKSRKEKKQTGSGPLG-NH2
notes: Conjugate of the Tat cell penetrating peptide (N-terminal) and DAXXp
Kd [2]: 13 µM

B5: Pip2b-DAXXp (peptide)
peptide: R[Ahx]RR[Ahx]RR[Ahx]RIHILFQN[dR]RMKWHKKKSRKEKKQTGSGPLG-NH2
modifications: not fully specified
notes: 39 residues; holds non-natural residues in the Pip2b part
Kd [2]: 0.7 µM

From patent publication US20130288979A1 (CENTRE NATIONAL DE LA RECHERCHE SCIENTIFIQUE CNRS, published 2013)
